# Data: the DeepSol protein solubility set
# Experiment: soluble on expression in E. coli; label from the status in PepcDB or PDB records
row,Sequence,soluble on expression in E. coli
1,MNRMDNDLLAIQEARILIENAREAQKALATFSQEKLDRIVERMAGEVVKYARELAMMSHEETGFGKWQDKYIKNIFASDFLCKKIRKMKVVGIIAEDKENQTLDVGVPVGVIVALLPSTNPVSTAIYKTLIAIKSGNAIVFSPHPKAKKTTRRVLEILVRTAEASGLPCGAIGYQRTQALEGTLGLMNHKDTALIIVTGVPKLVKAAYAAGKPTIYGGPGNGPAFIERSADIKQAVADIITSRTFDHGIVSASEQSVVAEECIADEVRQELRGNGGYFLSEEEAEQLGKLFLRPDGSVNPDIVGKSAVELARKIGITVSENTKVLISEQKFVSPTNPYAKEKLCPVLAFYVEKDWFNACEKCIELLLNDGRGHTLVIHSRNEQVIREFALKKPVSRVLVNTPATLGGIGGTTNLFPALTLGCGAVGGGFTSDNVSPLNLINIRKVGYGVRKLEDITCGVQAESVGSSESAGLTRLTGLNGSLCPGPGYPKERTQDLNELLETLLEQLLPYRNA,not soluble
2,MQREDILGEALKLLETQGIADTTLEMVAERVNRPLDTLQRFWPDKEAILYDALRYLSQQVDIWRRQLLLDETLSAEQKLLARYSALSECVSNNRYPGCLFIAACTFYPDPTHPIHQLANQQKRAAHDFTHELLTTLEIDDPAMVARQMELVLEGCLSRMLVNRSQADVDTAQRLAEDILRFAQCRQGGALT,soluble
3,MKVNNTIVVSIGQAGNQIAASFWKTVCLEHGIDPLTGQTAPGVAPRGNWSSFFSKLGESSSGSYVPRAIMVDLEPSVIDNVKATSGSLFNPANLISRTEGAGGNFAVGYLGAGREVLPEVMSRLDYEIDKCDNVGGIIVLHAIGGGTGSGFGALLIESLKEKYGEIPVLSCAVLPSPQVSSVVTEPYNTVFALNTLRRSADACLIFDNEALFDLAHRKWNIESPTVDDLNLLITEALAGITASMRFSGFLTVEISLRELLTNLVPQPSLHFLMCAFAPLTPPDRSKFEELGIEEMIKSLFDNGSVFAACSPMEGRFLSTAVLYRGIMEDKPLADAALAAMREKLPLTYWIPTAFKIGYVEQPGISHRKSMVLLANNTEIARVLDRICHNFDKLWQRKAFANWYLNEGMSEEQINVLRASAQELVQSYQVAEESGAKAKVQDSAGDTGMRAAAAGVSDDARGSMSLRDLVDRRR,soluble
4,MAQRYKRMSSTDINEYMPENLAKAIANPLFPALDSLLRAGRHVSSDDLDNHAFLSDFEPDLALFYQRYHTELVRAPEGFFYLRPRSTSLINRSVLSELDMLVGKVLCFLYLSPERLAHEGIFTNQELYDELLTLVEEKKLMKLVTNRASGSDLDREKLFEKVRTSLRRLRRLGMVITIGDTGKFRITEAVFRFGADVRLGGDVREAQLRLIRDGEAVVHTPEPSQQSLLENPTAEYDEEQTEWEDEALEHHHHHH,soluble
5,GMQTINATEIRNNFSYYIDTVVRDKPIAVKRNRDVLLFFSEQIIKDLLQDLKIHAELSKEDGIIIGTIDGFDLVVSGESEQEVIQKLAEDLLEYAQDYMNDFKLFYNAPNRKTHYPYILKVLLSSNIDEVKGYIYAEMV,soluble
6,GQVIARHKVREFNINPVNTPTKSKLHPSVFYDVFPGDKEPAVLSDNDPRLEVKLTESLFSKYKGNVNTEPTENMLVAVDHYAGQLLSLDIPTSELTLKEALYGVDGLEPIDITTSAGFPYVSLGIKKRDILNKETQDTEKMKFYLDKYGIDLPLVTYIKDELRSVDKVRLGKSRLIEASSLNDSVNMRMKLGNLYKAFHQNPGVLTGSAVGCDPDVFWSVIPCLMDGHLMAFDYSNFDASLSPVWFVCLEKVLTKLGFAGSSLIQSICNTHHIFRDEIYVVEGGMPSGCSGTSIFNSMINNIIIRTLILDAYKGIDLDKLKILAYGDDLIVSYPYELDPQVLATLGKNYGLTITPPDKSETFTKMTWENLTFLKRYFKPDQQFPFLVHPVMPMKDIHESIRWTKDPKNTQDHVRSLCMLAWHSGEKEYNEFIQKIRTTDIGKCLILPEYSVLRRRWLDLFHHHHHH,soluble
7,MGHHHHHHSHMDSTTVNYFALFEVISHSFVRKLAPNEFPHKLYIQNYTSAVPGTCLTIRKWLFTTEEEILLNDNDLAVTYFFHQAVDDVKKGYIKAEEKSYQLQKLYEQRKMVMYLNMLRTCEGYNEIIFPHCACDSRRKGHVITAISITHFKLHACTEEGQLENQVIAFEWDEMQRWDTDEEGMAFCFEYARGEKKPRWVKIFTPYFNYMHECFERVFCELKWRKEEY,not soluble
8,MGSDKIHHHHHHMNYPQEKIKPYSNDGKKSEQVEQMFDNIAPAYDQLNHTLSLGIDRSWRRKAINWLKPFRPQQIMDVATGTGDFAILACHELQPEQLIGTDISEGMMNVGREKVKKEGLSEKISFAREDCTSLSFADNRFDAITVAFGIRNFEDLDKGLSEMYRVLKTGGHLVILELTTPDRFPMKQMFTIYSKIVIPTLGKLLSKDNSAYSYLPQTIKAFPQGEVMKNVISRVGFSQVQFRRLTFGICTLYTATK,not soluble
9,MFVTLEVSDRAPLEATMSTPHHPVAIIGGGLGGLTAARVLHVNGIESAVFDLESGPEARTQGGMLDIHEENGQEAIRAAGLHDEFREIIHEGGQAMRLVGPDGTVRVATEDQGDGGRPEVDRGDLRGLLLNSLPDGTVHWRHKATGARALDDGRHEVTFADGSALTTDLLIGADGAWSRIRPLLSDAEPAYTGISFVESDLHEADTRHPRSAALVGGGFFISLGDRRGFLAHRETDGSLHVYTALRADEGWIDTVDFTDHAAAKAAVLAHFDGWDEGLRSLVAHAETITPRRIHALPVGHRWKRTPGVTLLGDAAHLMSPFAGEGANLAMYDGAELALALAAHPGDTEAALTQYEEGLFPRSEASAVESAGSLDTMFGTDGLEQMIGFFGAGRAEALEHHHHHH,not soluble
10,GMSDEQHDSVWPPPGLDFSKPTIARVYDALLGGKDNFEADRALADYACKHIPGLKESAIENRKVLVRGVRFLAGEAGISQFLDLGSGLPTVQNTHEVAQSVNPDARVVYVDIDPMVLTHGRALLAKDPNTAVFTADVRDPEYILNHPDVRRMIDFSRPAAIMLVGMLHYLSPDVVDRVVGAYRDALAPGSYLFMTSLVDTGLPAQQKLARITRENLGEGWARTPEEIERQFGDFELVEPGVVYTALWRPDEPVDPDNLSPGEQLGMAGIGRKKA,soluble
11,MKKQVVEVLVEGGKATPGPPLGPAIGPLGLNVKQVVDKINEATKEFAGMQVPVKIIVDPVTKQFEIEVGVPPTSQLIKKELGLEKGSGEPKHNIVGNLTMEQVIKIAKMKRSQMLALTLKAAAKEVIGTALSMGVTVEGKDPRIVQREIDEGVYDELFEKAEKE,soluble
12,MSLNILIVGGNGGIGLAMVKEALVRFPQAQIHATYRRTKSDYEHSALIWHQVDVTDETQVKNLSQAVNSIDWVINCVGMLHTPNKGPEKNLRMVEPDFFLQNIAVNTLPSMLLAKYFTPLLKCSGAPKFAVVSAKVGSISDNHLGGWYSYRASKAALNMFLKTMSIEWQRTLKNGVVLALHPGTTDTALSEPFQANVPEGKLFTPERVASDLMGQIVKAAPQDSGAFLTYDGEREGHHHHHH,soluble
13,MNEFTAVKELSEKLLEDYKTESSFFFASPTRTILAEGEFTTVKHHEIESFPELVQAVLRNAKQAGNPNPIVVGALPFDRRKEVQLIVPEYSRISERLQLDPTNHLEINRNLTFEMTPVPDHEVYMKGVKQGIEKIKDGDLKKIVLSRSLDVKSSGKIDKQKLLRELAEHNKHGYTFAVNLPKDENENSKTLIGASPELLVSRHGMQVISNPLAGSRPRSDDPVEDKRRAEELLSSPKDLHEHAVVVEAVAAALRPYCHTLYVPEKPSVIHSEAMWHLSTEVKGELKNPNTSSLELAIALHPTPAVCGTPMEEAREAIQKIEPFDREFFTGMLGWSDLNGDGEWIVTIRCAEVQENTLRLYAGAGVVAESKPEDELAETSAKFQTMLKALGLNDSSLNEK,not soluble
14,QTLLNVTLESESMAVDEVVVSARRLNRNDLGISDKEMVSATQKVDMEKLIAAAPVVSIEEALQGQLGGVDIVLGGDPGSRSAIRIRGTSTLNASSDPLIVIDGVPYPTEISDDFNFSTATEEDLGALLNISPNDIASVEVLKDASATAIWGTQGANGVLVIKTKQGT,not soluble
15,MKTITLRPGQMTLADLRHIYQHPVHITLDESAYVPIQQSVDCVQAILAEQRTAYGINTGFGLLASTRIATEDLENLQRSIVLSHAAGVGEANDDAIVRLIMVLKINSLARGFSGIRLEVIQALITLVNAGVYPHIPLKGSVGASGDLAPLAHMSLLLLGEGKARYQGEWLPAHTALAQAGLQPLTLAAKEGLALLNGTQVSAAYALRGLFEAEDLYAAASVFGCLTVDAALGSRSPFDARIHAVRGQRGQIDAASTYRHLLGERSEISESHKNCDKVQDPYSLRCQPQVMGACLGQIRQAAEVLAIESNAVSDNPLVFAEQGDVLSGGNFHAEPVAMAADNLALALAEVGSLSECRISLMMDKHMSQLPPFLVENGGVNSGFMIAQVTAAALTSENKGLAFPASVDSIPTSANQEDHVSMAPRAGKRLWEMAENVRNILAIEWLAACQGLDLRKGLRTSAILEPARQLLRQHVTYYDKDRFFAPDIEVASQLIAQRHMNELMPAKLLPSL,not soluble
16,MMNPLIIKLGGVLLDSEEALERLFSALVNYRESHQRPLVIVHGGGCVVDELMKGLNLPVKKKNGLRVTPADQIDIITGALAGTANKTLLAWAKKHQIAAVGLFLGDGDSVKVTQLDEELGHVGLAQPGSPKLINSLLENGYLPVVSSIGVTDEGQLMNVNADQAATALAATLGADLILLSDVSGILDGKGQRIAEMTAAKAEQLIEQGIITDGMIVKVNAALDAARTLGRPVDIASWRHAEQLPALFNGMPMGTRILA,soluble
17,MSRVPEPSVFLVVDEAKRKARERGVGLIDLSIGSTDLPPPEAPLKALAEALNDPTTYGYCLKSCTLPFLEEAARWYEGRYGVGLDPRREALALIGSQEGLAHLLLALTEPEDLLLLPEVAYPSYFGAARVASLRTFLIPLREDGLADLKAVPEGVWREAKVLLLNYPNNPTGAVADWGYFEEALGLARKHGLWLIHDNPYVDQVYEGEAPSPLALPGAKERVVELFSLSKSYNLAGFRLGFALGSEEALARLERVKGVIDFNQYAGVLRMGVEALKTPKEVVRGYARVYRERALGMAEALKGVLSLLPPRATMYLWGRLPEGVDDLEFGLRLVERGVALAPGRGFGPGGKGFVRIALVRPLEELLEAAKRIREALD,soluble
18,MGSDKIHHHHHHMRILFYCDTVFSFGGVQRVLAEIAKALSGKHEVTILTTDTCTDLSMYGYAESTVRFDSFSYSASSFIERLLCKGYSFLYKHGLPHTRLTSEWYAASFFPSSYKRTLARKINARQCDVVIGVHAFMALHLSAVKSRIRTKTVGWLHNSYEAFFEKETPYLPGLDCFFQVQMGKLDERVVLSHADAGCFFRKMNLCCEVIYNPLTVLPKGRGKKEYRRILAVGRFSFGHKGFDILIKAFSVFVKTHPDWTLEIVGEGPEEALYRSLINEYELEKSIALHPFTKEVQEYYAHSSMYVLSSRWEGFGLVMIEAMAHGLPVIASDLPITRELLKDKDMAVLFETGNIAQLAGCMSYMADRTDWEWMGNKAVEYADTFHIEKVCDSWNNLLKKVVYGTR,not soluble
19,MGERFYLYDDTVEAAVRFVSFVGERQRFDLALIETDRFYGKWLVLDLQSNRFAILGRDDLEEPGYIEHAYQLHEQDANDLRAFLEEYLS,not soluble
20,MGHHHHHHSHMLLTMPGGVAKAGYLHKKGGTQLQLLKWPLRFVIIHKRCVYYFKSSTSASPQGAFSLSGYNRVMRAAEETTSNNVFPFKIIHISKKHRTWFFSASSEEERKSWMALLRREIGHFHEKKDLP,soluble
